# Experimental data reported in the nanobody polyreactivity screen of Harvey et al. (2022).
# Test: yeast display, Sf9 membrane polyspecificity reagent, FACS + sequencing; frameworks hold sequencing errors
# How it was run: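 A synthetic nanobody library was expressed on Saccharomyces cerevisiae BJ5465 by galactose induction for 36–48 hours. The library was stained for 1 hour at 4 °C with 10% biotinylated, detergent-solubilized Sf9 membrane reagent and enriched with streptavidin microbeads before FACS. Low and high (top ~1%) gates were set on anti-HA fluorescence for expression and streptavidin fluorescence for reagent binding, and each polyreactivity label reflects the gate of origin.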
row,Sequence,polyreactivity (PSR sort gate)
1,QVQLVESGGGLVQAGGSLRLSCAASGSLVGYYPMGWYRQAPGKERELVAAISRSGGSTYYADSVKGRFSISRDNAKNTVYLQMNSLKPEDTAVYYCATSRVRSAGRDYWGQGTQVTVSS,high polyreactivity
2,QVQLVESGGGLVQAGGSLRLSCAASGSNFAKYAMGWYRQAPGKERELVAAISWRGGSTYYADSVKGRFTISRDNAKNTVYLQMNSLKPEDTAVYYCNKVGTWQGPYDYWGQGTQVTVSS,high polyreactivity
3,QVQLVESGGGLVQAGGSLRLSCAASGSNFDIYAMGWSRQAPGKERELVAAISWNGGDTTYADSVKGRFTISRDNAKNTVYLQLNSLKPEDTAVYYCAADLGYWVADYYWGQGTQVTVSS,high polyreactivity
4,QVQLVESGGGLVQAGGSLRLSCAASGSNFDVNAMGWYRQAPGKERELVAAISDSGGSTYYADSVKGRFTISRDNAKNTVYLQMNSLKPEDTAVYYCNADWSWYNYYDFDYWGQGTQVTVSS,low polyreactivity
5,QVQLVESGGGLVQAGGSLRLSCAASGSNFFFNTMGWYRQAPGKERELVAVITSGGSTYYADSVKGRFTISRDNAKNTVYLQMNSLKPEDTAVYYCAARYLPYRRIKYDYWGQGTQVTVSS,low polyreactivity
6,QVQLVESGGGLVQAGGSLRLSCAASGSNFFYYVMGWYRQAPGKERERVAAITRSTGSTYYADSVKGRFTISRDNAKNTVYLQMNSLIPEDTAVYSCAAEGPKWYYSGAFDYWGQGTQVTVSS,low polyreactivity
7,QVQLVESGGGLVQAGGSLRLSCAASGSNFGRYAMGWYRQAPGKESELVAAINDDSGRTYYADTVKGRFTISRDNAKNTVYLQMNSLKPEDTAVYYCAAYRISQGYSTYNYWGQGTQVTVSS,high polyreactivity
8,QVQLVESGGGLVQAGGSLRLSCAASGSNFGYYAMGWYRQAPGQERELVAAINSSGGSTYYADSVKGRFTISRDNAKNTVYLQMNSLKPEDTAVYYCAVRTRYKFNYWGQGTQVTVSS,low polyreactivity
9,QVQLVESGGGLVQAGGSLRLSCAASGSNFHQYAMGWYRQAPGKERELVAGINWSGGSTYYADSVKGRFTISRDNAKNTVYLQMNSLKPEDTAVYYCAKRYQLARAAYTGGYWGQGTQVTVSS,high polyreactivity
10,QVQLVESGGGLVQAGGSLRLSCAASGSNFKLYSMGWYRQAPGKERELVATIRWSGGSTYYADSVKGRFTISRDNAKNTVYLQMNSLKPEDTAVYYCAARRVRPNGYTSSPLDYWGQGTQVTVSS,high polyreactivity
11,QVQLVESGGGLVQAGGSLRLSCAASGSNFKNNAMGWYRQAPGKEREFVASISKRGGSTYYADSVKGRFTISRDNAKNTVYLQMNSLKPEDTEVYYCAKTYWSYGWSHGDYGEFDYWGQGTQVTVSS,high polyreactivity
12,QVQLVESGGGLVQAGGSLRLSCAASGSNFKWYAMGWYRQAPGKERELVSAISKSGGSTYYADSVKGRFTISRDNAKNTVYLQMNSLKPEDTAVYYCNAVYIGSRRRYEYDYWGQGTQVTVSS,high polyreactivity
13,QVQLVESGGGLVQAGGSLRLSCAASGSNFNRYAMGWYRQAPGKERELVAAITSTGGTNYADSVKGRFTISLDNAKNSVYLQMNSLKPEDTAVYYCAKRWLRWRSNYWGQVTQVTVSS,high polyreactivity
14,QVQLVESGGGLVQAGGSLRLSCAASGSNFNVYVMGWYRQAPGKERELVAAISWGDGSTSYADSVKGRFTISRDHAKNTVYLQMNSLKPEDTAVYYCNRRHSYPYDYWGQGTQVTVSS,high polyreactivity
15,QVQLVESGGGLVQAGGSLRLSCAASGSNFPHNAMGWYRQAPGKERELVAAITSSGGSTYYADSVKGRFTISRDNAKNTVYLQMNSLKPEDTAVYYCNKGKQRRRYNYWGQGTQVTVSS,high polyreactivity
16,QVQLVESGGGLVQAGGSLRLSCAASGSNFTFYTMGWYRQEPGKERELVAAINWSGSRTYYADSVKGRFTISRDNAKNTVYLQMNSLKPEDTAVYYCDAYYYTGPTTVESDYWGQGTQVTVSS,high polyreactivity
17,QVQLVESGGGLVQAGGSLRLSCAASGSNFTPNTMGWYRQAPAKERELVAGISSGDSTDYADSVKVRFTISRDNAKNTVYLQLNSLNPEDPAVYYCAAPWYGYYSRYDFYYWGQGTQVTVSS,low polyreactivity
18,QVQLVESGGGLVQAGGSLRLSCAASGSNFTYYALGWYRQAPGKERELVAAISKTGGRTYYADSVKGRFTISRDNAKNTVYLQMNSLKPEDTAVYYWAAEAPWQWYGWLRGYDFCGQGTQVTVSS,high polyreactivity
19,QVQLVESGGGLVQAGGSLRLSCAASGSNFVEYAMGWYRQAPGKERELVAGISSGGITSYADSVKGRFTISRDNAKNTVYLQMNSLKPEDTAVYYCATDPYKWFYSSYYLLQEVEYWGQGTQVTVSS,low polyreactivity
20,QVQLVESGGGLVQAGGSLRLSCAASGSNFVGYVMGRYRQAPGKERELVARIRWGGGRTYYADSVKGRFTISRDNAKNRVYLQMKSLKAEDTAVYYCAAVWRTRWAPGYYWGQGTQVTGSS,high polyreactivity
21,QVQLVESGGGLVQAGGSLRLSCAASGSNFVKYVMGWYRQAPGKERELDAAITWRGGRTYYADSVKGRFTISRDNEKNTVYLQMNSLKPEDTAVYYCAAYDQSLYGRRYDYWGQGTQVTVSS,high polyreactivity
22,QVQLVESGGGLVQAGGSLRLSCAASGSNFYPYAMGWYRQAPGKERELVAAITGTGGSTYYADSVKGRFTISRDNAKNTVYLQMNSLKPEDTAVYYCATRRRYYYSRYNYWGQGTQVTVSS,high polyreactivity

row,Sequence,polyreactivity (PSR sort gate)
1,QVQLVESGGGLVQAGGSLRLSCAASGSNIYHNTMGWYRQAPGKERELITYYADSVKGRFTISRDNAKNTVYLQMNSLKPEDTAVYYCAASPVSRTGPGDYDYWGQGTQVTVSS,low polyreactivity
2,QVQLVESGGGLVQAGGSLRLSCAASGSNSFLYTMRWYRQAPGKERELVAAITGSTASTYYADSVKGRFTISRDNAKNTVYLQMNSLKPEDSAVYYWAAYWYAEGYWVSRDYWGQGTQVTVSS,low polyreactivity
3,QVQLVESGGGLVQAGGSLRLSCAASGSNSRVNAMGWYRQATWKERELVASITKSTGSTYYADSVKGRFTISRDNAKNTVYLQMNSLKPEDTAVYYCAKAASYPVRAFYYWGLGTQVTVSS,high polyreactivity
4,QVQLVESGGGLVQAGGSLRLSCAASGSNSVYAMGWYRQAPGKERELVAAITISGGITYYADSVKGRFTIARDNAKNTVYLQMNSLKPEDTAVFYCNADQGSALRWSYDYWGQGTQVTVSS,low polyreactivity
5,QVQLVESGGGLVQAGGSLRLSCAASGSNYPPNAMGWYRQAPGKEREFVASITSSGGITNYADSVKGRFTISRDNAKNTVYLQMNSLKPVDTAVYYCAAKYYGGTRFRPYGYWGQGTQVTVSS,high polyreactivity
6,QVQLVESGGGLVQAGGSLRLSCAASGSNYYYYAIGWYRQAPGKERELVAAISWSGASTFYADSVKGRFTSSRDNAKNTVYLQMNSLKPEDTAVYYCAARYYGQPQYQPLYYWGQGTQVTVSS,high polyreactivity
7,QVQLVESGGGLVQAGGSLRLSCAASGSPFGYYAMGWYRQATGKERELVAAITRSGGRTYYADSVKGRFTISRDNAKNTVYLQMNSLKPEDTAVYYCAADRVRRPSPGGMDFWGQGTQVTVSS,high polyreactivity
8,QVQLVESGGGLVQAGGSLRLSCAASGSPFYAYAMGWYRQAPGKERQLVAAITYRDGRTNYADSVKGRFTISRDNAKNTVYLQMNSMKPEDTEVYYCARITGFTVRRYDYWGQGTQVTVSS,high polyreactivity
9,QVQLVESGGGLVQAGGSLRLSCAASGSSFGVNAMGWYRQAPGKERELVADISVRTDSTYYADSVKGRFTISRDNAKNTVYLQMNSLKPEDTAVYYCAAEVPYYYPGFYSYYDDSDYWGQGTQVTVSS,low polyreactivity
10,QVQLVESGGGLVQAGGSLRLSCAASGSSFGYNAMGWYRQAPGKERELVAAISRSGSTYYADSVKGRFTISRDKAKNTVYLHMNSLKPEDTAVYYCDARLWWTFCEYDYWGQGTQVTVSS,high polyreactivity
11,QVQLVESGGGLVQAGGSLRLSCAASGSSFNINAMGWYRQAPGKERELVAAISWSGDITYYADSVKGRFTISRDNAKNTVYLQLNSLKPEDTAVYYCNTDDPGNYWYAEYDYWGQGTQVTVSS,low polyreactivity
12,QVQLVESGGGLVQAGGSLRLSCAASGSSFPGYAMGWYRKAPGKERELVATSTYSDGSTYYADSVKGRFTISRDNAKNTVYLQMNSLKPEDTAVYYCAVTYWWYYGYDYWGQGTQVTVSS,low polyreactivity
13,QVQLVESGGGLVQAGGSLRLSCAASGSSFPYNTMGWYRQAPGKERELVAAISSGASTNYADSVKGRFTISRDNAKNTVYLQMNSLKPEDTAVYYCAAKYNANWDFDYWGQGTQVTVSS,low polyreactivity
14,QVQLVESGGGLVQAGGSLRLSCAASGSSFRGYAMGWSRQAPGKERELVAAISRSGGSTYYADSVKGRFTISRDNAKNTVYLQMKSLKPEDTAVYYCNARCSKRSSRGYDYWGQGTQVTVSS,high polyreactivity
15,QVQLVESGGGLVQAGGSLRLSCAASGSSFRYNAMGWYREAPGKEREMVAAITSSATSTYYADSVKGRFTISRDNAKNTVYLQMNSLKPEATAVYYCAAPPVYKWVSSRYDYWGQGTQVTVSS,low polyreactivity
16,QVQLVESGGGLVQAGGSLRLSCAASGSSFSGNFMGWYRQAPGKERELVAAISGRGGSTYYADSVKGRFTISRDNAKNTVYLQMNSLKPEDTAVYYCDAVYLKTYYWGLGTQVTVSS,high polyreactivity
17,QVQLVESGGGLVQAGGSLRLSCAASGSSFTPNVMGWYRQAPGKERELVAAISQSGGSTFYADSVKGRFTISRDNAKNTVYLQMNSLKPEDTAVYYCATEYYGPVYDLDYDYWGQGTQVTVSS,low polyreactivity
18,QVQLVESGGGLVQAGGSLRLSCAASGSSFTRYAMGWYRQAPGKERELVATINFSGDRTYYADSVKGRFTISRDNAKNTVYLQMNSLKPEDTAVYYCNNYSYQWPYRRFDYWGQGTLVTVSS,high polyreactivity
19,QVQLVESGGGLVQAGGSLRLSCAASGSSFWYNAMGWYRQAPGKERELVATISSRGDGTYYADSVKGRFTISRDNAKNTVYLQMNSLKPEDTAVYYCNKYRQQGWEFDYWGQGTQVTVSS,high polyreactivity
20,QVQLVESGGGLVQAGGSLRLSCAASGSSKLMLWDGIDRRLGKKGSWLPLFVLVVLRNYADSVKGRFTISRDNAKNTVFLHMNSLKPEDTAVYYCAATPIGSGGWGDYWGQGTQVTVSS,low polyreactivity
21,QVQLVESGGGLVQAGGSLRLSCAASGSSVYRYAMGWYRQAPGKERELVAAITWSGGSTYYADSVKGRFTISRDNAKNTVYLQMNSLKPEDSAVYYCAVEPFSNEFYYWGQGTQVTVSS,low polyreactivity
